Data on five molecules can be found in publication PMC11322871, “AlphaFold2 assists in providing novel mechanistic insights into the interactions among the LUBAC subunits” (Acta Biochimica et Biophysica Sinica, 2024).

First the molecules themselves.
B1: HOIL-1L-UBL domain (residues 55-135) (domain or fragment, human, UniProt Q9BYM8-1 55-135, looked up)
chain: IRLWVSVEDAQMHTVTIWLTVRPDMTVASLKDMVFLDYGFPPVLQQWVIGQRLARDQETLHSHGVRQNGDSAYLYLLSARN
notes: HOIL-1L, human, UBL domain, residues 55-135; also called HOIL-UBL
B2: HOIP (629-695) (domain or fragment)
chain: PEPTPSWDGPDKQSLVRRLLAVYALPSWGRAELALSLLQETPRNYELGDVVEAVRHSQDRAFLRRLL

In assay [1] the target is HOIP-UBA domain (residues 466-629) (human) (UniProt Q96EP0). As to the kind of experiment: SPR; Biacore T200; the HOIL-1L and SHARPIN constructs mixed at the same concentration and incubated at 16°C for 2 h before analysis against HOIP-UBA (466-630); who was immobilised is not stated.
The target in assay [2] is B1. As to the kind of experiment: ITC; MicroCal PEAQ-ITC; cell and syringe not stated.
In assay [3] the target is B1. The experiment in a line: SPR; Biacore T200; HOIL-1L-UBL immobilised on the sensor chip, HOIP fragments flowed over. (In general: In SPR one partner is held on a chip, and binding of the other changes the refractive index at the surface.)
For assay [4], the target named is T1, HOIP (466-695) (human, UniProt Q96EP0 466-695).
T1 construct: HOIP, human, residues 466-695 (HOIP-UBA together with HOIP 629-695); also called HOIP domain (residues 466-695)
T1 sequence (looked up): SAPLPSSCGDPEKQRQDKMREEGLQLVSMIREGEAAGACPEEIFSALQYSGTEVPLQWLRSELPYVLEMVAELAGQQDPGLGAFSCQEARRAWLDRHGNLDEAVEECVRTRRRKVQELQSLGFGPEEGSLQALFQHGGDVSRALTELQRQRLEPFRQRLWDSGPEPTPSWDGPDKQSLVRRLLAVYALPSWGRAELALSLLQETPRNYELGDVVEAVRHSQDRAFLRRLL
The experiment in a line: ITC; MicroCal PEAQ-ITC; cell and syringe not stated. To be noted: both partners purified. Background: ITC needs no label: the signal is the heat of the interaction.

For assay [5], the target named is T1, HOIP (466-695). As to the kind of experiment: SPR; Biacore T200; HOIL-1L-UBL immobilised on the sensor chip, HOIP fragments flowed over. To be noted: both partners purified.

A word on the Kd: it is the concentration at which binding is half-saturated. A low value points to higher affinity. In the case of “HOIL-1L (5-135) and SHARPIN (127-309), containing the LTM domain, mixed before SPR (from UniProt Q9BYM8-1 5-135; Q9H0F6 127-309) (complex)”, the Kd in assay [1] amounted to 496 nM. That is a sub-micromolar value.

In assay [1], “HOIL-1L-UBL and SHARPIN-UBL without the LTM domain, mixed before SPR (from UniProt Q9BYM8-1 55-135; Q9H0F6 206-309) (complex)” had a Kd of 72.1 nM.

For the molecule “HOIP-UBA domain (residues 466-629) (from UniProt Q96EP0 466-629) (domain or fragment)”, the dissociation constant Kd in assay [2] was determined as 4300 nM; in assay [3], 543 nM.

B1: the Kd is 800 ± 200 nM with HOIP (466-695) [4] and 359 nM with HOIP (466-695) [5].

In the case of B2, the affinity in assay [3] (both partners purified), expressed as Kd, was 989 nM. This lies in the sub-micromolar range.
